# Results as given in patent publication US12662541B2, “Antibody-drug conjugates against the receptor tyrosine kinase EphA5” (Rutgers, The State University of New Jersey, priority 2021, dated 2026).
# Positions count from the first letter of the chain named.
# B1: VH5/VK4: humanized anti-EphA5 antibody, VH SEQ ID NO:6, VL SEQ ID NO:12; lead variant (antibody, V domains shown)
# VH: EVQLVESGGGLVQPGGSLKLSCAASGFTFSTFGIHWVRQAPGKGLEWVAYISGASTTIYYADSVKGRFTISRDNSKNTLYLQMNSLRAEDTAVYYCARYGTSFPYGLDYWGQGTLVTVSS
# VL: DIVMTQSPDSLAVSLGERATINCKSSQSVDYDGDSYMNWYQQKPGKAPKLLIYGASNLESGIPDRFSGSGSGTDFTLTISRLEPEDAASYYCQQSNEDPFTFGQGTKLEIK
# B2: VH2/VK4: humanized anti-EphA5 antibody, VH SEQ ID NO:3, VL SEQ ID NO:12 (antibody, V domains shown)
# VH: B1 VH with Q3T, S63T, A88S, V93M
# VL: B1 VL
# B3: VH2/VK1: humanized anti-EphA5 antibody, VH SEQ ID NO:3, VL SEQ ID NO:9 (antibody, V domains shown)
# VH: B1 VH with Q3T, S63T, A88S, V93M
# VL: B1 VL with D9G, S25A, P84E
# B4: VH3/VK1: humanized anti-EphA5 antibody, VH SEQ ID NO:4, VL SEQ ID NO:9 (antibody, V domains shown)
# VH: B1 VH with S63T, A88S, V93M
# VL: B1 VL with D9G, S25A, P84E
# B5: VH1/VK2: humanized anti-EphA5 antibody, VH SEQ ID NO:2, VL SEQ ID NO:10 (antibody, V domains shown)
# VH: B1 VH with Q3T, L18R, S63T, A88S, V93M, L115S
# VL: B1 VL with S25A
# B6: VH3/VK2: humanized anti-EphA5 antibody, VH SEQ ID NO:4, VL SEQ ID NO:10 (antibody, V domains shown)
# VH: B1 VH with S63T, A88S, V93M
# VL: B1 VL with S25A
# B7: VH1/VK1: humanized anti-EphA5 antibody, VH SEQ ID NO:2, VL SEQ ID NO:9 (antibody, V domains shown)
# VH: B1 VH with Q3T, L18R, S63T, A88S, V93M, L115S
# VL: B1 VL with D9G, S25A, P84E
# B8: VH3/VK3: humanized anti-EphA5 antibody, VH SEQ ID NO:4, VL SEQ ID NO:11 (antibody, V domains shown)
# VH: B1 VH with S63T, A88S, V93M
# VL: B1 VL with S25A, S89V
# B9: VH5/VK2: humanized anti-EphA5 antibody, VH SEQ ID NO:6, VL SEQ ID NO:10; lead variant (antibody, V domains shown)
# VH: B1 VH
# VL: B1 VL with S25A
# B10: VH3/VK5: humanized anti-EphA5 antibody, VH SEQ ID NO:4, VL SEQ ID NO:13 (antibody, V domains shown)
# VH: B1 VH with S63T, A88S, V93M
# VL: B1 VL with S89V
# B11: VH2/VK5: humanized anti-EphA5 antibody, VH SEQ ID NO:3, VL SEQ ID NO:13 (antibody, V domains shown)
# VH: B1 VH with Q3T, S63T, A88S, V93M
# VL: B1 VL with S89V
# B12: VH4/VK4: humanized anti-EphA5 antibody, VH SEQ ID NO:5, VL SEQ ID NO:12; lead variant (antibody, V domains shown)
# VH: B1 VH with S63T
# VL: B1 VL
# Tested on: not listed separately
# Assay: Thermal ramp stability (UNcle biostability platform, Sypro Orange and SLS)
# Type: physicochemical
# Text: Thermal ramp stability experiments (Tm and Tagg) are well established methods for ranking proteins and formulations for stability. A protein's denaturation profile provides information about its thermal stability and represents a structural ‘fingerprint’ for assessing structural and formulation buffer modifications. A widely used measure of the thermal structural stability of a protein is the temperature at which it unfolds from the native state to a denatured state. For many proteins, this unfolding process occurs over a narrow temperature range and the mid-point of this transition is termed ‘melting temperature’ or ‘Tm’. To determine the melting temperature of a protein, UNcle measures the fluorescence of Sypro Orange (which binds to exposed hydrophobic regions of proteins) as the protein undergoes conformational changes.
# Samples for each variant were formulated in PBS and Sypro Orange at a final concentration of 1 mg/mL. […] Samples were subjected to a thermal ramp from 25-95° C., with a ramp rate of 0.3° C./minute and excitation at 473 nm. Full emission spectra were collected from 250-720 nm, and the area under the curve between 510-680 nm was used to calculate the inflection points of the transition curves (Tonset and Tm). Monitoring of static light scattering (SLS) at 473 nm allowed the detection of protein aggregation, and Tagg (onset of aggregation) was calculated from the resulting SLS profiles. Thermal stability values determined lie in a broad range from 57.9 to 69.6° C. (Tm1), 55.1 to 65.2° C. (Tonset) and 65.6 to 70.2° C. (Tagg) with the humanized leads generally showing improved profiles when compared to the chimeric antibody. […] All humanized antibodies appear to have a higher Tm1, Tonset and Tagg compared to the chimeric antibody.
row,Molecule,Tagg ranking among the leads (SLS profiles)
1,B1,highest Tagg values

# Molecular target: T1, rhEphA5 antigen (Homo sapiens, UniProt P54756)
# T1 construct: purchased R and D systems 3036-A5
# Assay: ka (1/Ms)
# Protocol: (§1) Table printed on a drawing sheet, FIG. 13
# (§2) Head of the field: ka (1/Ms)
# (§3) The patent's description of the figure: FIG. 13 is a table illustrating the single cycle kinetic parameters of chimeric (VH0/VK0) and humanized 11C12 variants (tested as cell culture supernatants) binding to rhEphA5 antigen as determined using the Biacore T200. The relative KD was calculated by dividing the KD of the humanized variant by that of the VH0/VK0 (top row) assayed in the same experiment. The variants marked with ‘*’ have KD values that are within two-fold of, or are better than, the chimeric antibody. The chimeric and selected variants marked in ‘#’ were identified as the main leads for purification. […]
# (§4) Where the first naming reader finds the target: description_of_the_figure: humanized 11C12 variants (tested as cell culture supernatants) binding to rhEphA5 antigen as determined using the Biacore T200
row,ka,Molecule
1,1.37e-06 M⁻¹ s⁻¹,B2
2,1.35e-06 M⁻¹ s⁻¹,B3
3,1.39e+06 M⁻¹ s⁻¹,B4
4,1.31e-06 M⁻¹ s⁻¹,B5
5,1.34e+06 M⁻¹ s⁻¹,B6
6,1.25e-06 M⁻¹ s⁻¹,B7
7,1.35e-06 M⁻¹ s⁻¹,B1
8,1.32e+06 M⁻¹ s⁻¹,B8
9,1.38e-06 M⁻¹ s⁻¹,B9
10,1.29e+06 M⁻¹ s⁻¹,B10
11,1.34e+06 M⁻¹ s⁻¹,B11

# Molecular target: T1, rhEphA5 antigen
# Assay: kd (1/s)
# Protocol: as §1
# (§5) Head of the field: kd (1/s)
# as §3, §4
row,kd,Molecule
1,0.00126 s⁻¹,B2
2,0.0012 s⁻¹,B3
3,0.00123 s⁻¹,B4
4,0.00126 s⁻¹,B5
5,0.0013 s⁻¹,B6
6,0.00128 s⁻¹,B7
7,0.0014 s⁻¹,B12
8,0.00141 s⁻¹,B1
9,0.00133 s⁻¹,B8
10,0.00123 s⁻¹,B9
11,0.00143 s⁻¹,B10
12,0.0014 s⁻¹,B11

# Molecular target: T1, rhEphA5 antigen
# Assay: KD (M)
# Protocol: as §1
# Head of the field: KD (M)
# as §3, §4
row,Kd,Molecule
1,0.917 nM,B2
2,0.89 nM,B3
3,0.884 nM,B4
4,0.968 nM,B5
5,0.968 nM,B6
6,1.02 nM,B7
7,1.01 nM,B8
8,1.1 nM,B10
9,1.05 nM,B11

# Molecular target: T2, EphA5 antigen (Homo sapiens, UniProt P54756)
# T2 construct: purchased R and D systems 3036-A5
# Assay: ka (1/Ms)
# Protocol: (§6) Table printed on a drawing sheet, FIG. 19
# as §2
# (§7) The patent's description of the figure: FIG. 19 is a table illustrating the Multi-cycle kinetic parameters of chimeric (VH0/VK0) and humanized variants (tested as purified proteins) binding to EphA5 antigen as determined using the Biacore T200. The relative KD was calculated by dividing the KD of the humanized variant by that of the VH0VK0 (first row) assayed in the same experiment. […]
# (§8) Where the first naming reader finds the target: description_of_the_figure: humanized variants (tested as purified proteins) binding to EphA5 antigen as determined using the Biacore T200
row,ka,Molecule
1,1.27e+06 M⁻¹ s⁻¹,B12
2,1.23e+06 M⁻¹ s⁻¹,B1
3,1.34e+06 M⁻¹ s⁻¹,B9

# Molecular target: T2, EphA5 antigen
# Assay: kd (1/s)
# Protocol: as §6, §5, §7, §8
row,kd,Molecule
1,0.00132 s⁻¹,B12
2,0.00128 s⁻¹,B1
3,0.00125 s⁻¹,B9
